Assay results from article doi:10.1101/2022.11.10.515920.

Columns and labels:
[1] = biological target: adalimumab produced in BY-2 lysate; test: SPR
[2] = biological target: commercial adalimumab reference product from CHO cells (Humira); test: SPR

Chain of human FcR I (CD64) (P12314 16-292): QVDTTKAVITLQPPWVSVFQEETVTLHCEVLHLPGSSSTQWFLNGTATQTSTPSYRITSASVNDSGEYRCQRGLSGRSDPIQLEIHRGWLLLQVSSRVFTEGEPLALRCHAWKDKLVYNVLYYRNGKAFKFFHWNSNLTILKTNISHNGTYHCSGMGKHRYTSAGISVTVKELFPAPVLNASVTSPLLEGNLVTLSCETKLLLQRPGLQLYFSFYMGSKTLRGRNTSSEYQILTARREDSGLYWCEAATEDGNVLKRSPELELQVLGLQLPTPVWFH

human FcR I (CD64) (from UniProt P12314) (receptor)
Kd [1]: 0.353 nM | Kd [2]: 0.158 nM
